System: Escherichia coli TOP10
Assay: shrunken log2 fold change of peptide-encoding DNA abundance (4.5 h post-induction vs induction); higher = less antimicrobial activity (less host growth inhibition)
Details: time post-induction: 4.5 h; library: site-saturation at positions 5, 18, 19, 20
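Note: peptides expressed intracellularly from a pBAD plasmid library in pooled LB shake-flask culture, induced with 0.3% L-arabinose, DNA abundance read by NGS, three biological replicates, DESeq2 with apeglm shrinkage.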

Sequence: RRIRCRPPRLPRPRPRPYAHPRP
- shrunken log2 fold change: -0.189

Sequence: RRIRGRPPRLPRPRPRPTTFPRP
- shrunken log2 fold change: 0.608

Sequence: RRIRGRPPRLPRPRPRPVWLPRP
- shrunken log2 fold change: 0.649

Sequence: RRIRERPPRLPRPRPRPVHTPRP
- shrunken log2 fold change: -0.00346

Sequence: RRIRARPPRLPRPRPRPCTFPRP
- shrunken log2 fold change: -0.365

Sequence: RRIRARPPRLPRPRPRPCIKPRP
- shrunken log2 fold change: 0.126

Sequence: RRIRVRPPRLPRPRPRPSREPRP
- shrunken log2 fold change: 0.0823

Sequence: RRIRKRPPRLPRPRPRPTGAPRP
- shrunken log2 fold change: 1.09

Sequence: RRIRGRPPRLPRPRPRPVSMPRP
- shrunken log2 fold change: 0.401

Sequence: RRIRMRPPRLPRPRPRPMKNPRP
- shrunken log2 fold change: 0.328

Sequence: RRIRIRPPRLPRPRPRPSYTPRP
- shrunken log2 fold change: -1.06

Sequence: RRIRNRPPRLPRPRPRPECYPRP
- shrunken log2 fold change: -0.329

Sequence: RRIRGRPPRLPRPRPRPCYEPRP
- shrunken log2 fold change: 0.219

Sequence: RRIRLRPPRLPRPRPRPCWYPRP
- shrunken log2 fold change: -0.176

Sequence: RRIRNRPPRLPRPRPRPWTSPRP
- shrunken log2 fold change: 0.0238

Sequence: RRIRSRPPRLPRPRPRPSNHPRP
- shrunken log2 fold change: -0.503

Sequence: RRIRFRPPRLPRPRPRPQVPPRP
- shrunken log2 fold change: -0.144

Sequence: RRIRVRPPRLPRPRPRPGKCPRP
- shrunken log2 fold change: 0.0804

Sequence: RRIRHRPPRLPRPRPRPRCKPRP
- shrunken log2 fold change: -0.053

Sequence: RRIRRRPPRLPRPRPRPGWCPRP
- shrunken log2 fold change: 0.422

Sequence: RRIRMRPPRLPRPRPRPMCTPRP
- shrunken log2 fold change: -0.0175

Sequence: RRIRRRPPRLPRPRPRPKSHPRP
- shrunken log2 fold change: -0.172

Sequence: RRIRPRPPRLPRPRPRPPRQPRP
- shrunken log2 fold change: 0.334

Sequence: RRIRARPPRLPRPRPRPKAGPRP
- shrunken log2 fold change: 0.213

Sequence: RRIRLRPPRLPRPRPRPCDHPRP
- shrunken log2 fold change: -0.239

Sequence: RRIRLRPPRLPRPRPRPWIQPRP
- shrunken log2 fold change: -0.355

Sequence: RRIRSRPPRLPRPRPRPCPAPRP
- shrunken log2 fold change: -0.271

Sequence: RRIRLRPPRLPRPRPRPSANPRP
- shrunken log2 fold change: -0.0303

Sequence: RRIRKRPPRLPRPRPRPVDQPRP
- shrunken log2 fold change: 0.766

Sequence: RRIRCRPPRLPRPRPRPARHPRP
- shrunken log2 fold change: 0.061

Sequence: RRIRDRPPRLPRPRPRPKYVPRP
- shrunken log2 fold change: 0.13

Sequence: RRIRPRPPRLPRPRPRPVFGPRP
- shrunken log2 fold change: 0.206

Sequence: RRIRTRPPRLPRPRPRPTNIPRP
- shrunken log2 fold change: -0.519

Sequence: RRIRQRPPRLPRPRPRPCTMPRP
- shrunken log2 fold change: -0.804

Sequence: RRIRKRPPRLPRPRPRPWDHPRP
- shrunken log2 fold change: -0.0434

Sequence: RRIRFRPPRLPRPRPRPDIYPRP
- shrunken log2 fold change: -0.0949

Sequence: RRIRPRPPRLPRPRPRPYSVPRP
- shrunken log2 fold change: -1.01

Sequence: RRIRVRPPRLPRPRPRPQVDPRP
- shrunken log2 fold change: 0.00887

Sequence: RRIRNRPPRLPRPRPRPFMMPRP
- shrunken log2 fold change: -0.181

Sequence: RRIRFRPPRLPRPRPRPMSSPRP
- shrunken log2 fold change: -0.0482

Sequence: RRIRRRPPRLPRPRPRPHSHPRP
- shrunken log2 fold change: -0.0882

Sequence: RRIRRRPPRLPRPRPRPVVDPRP
- shrunken log2 fold change: 0.372

Sequence: RRIRQRPPRLPRPRPRPTATPRP
- shrunken log2 fold change: 0.0728

Sequence: RRIRGRPPRLPRPRPRPVETPRP
- shrunken log2 fold change: 0.689

Sequence: RRIRSRPPRLPRPRPRPMKSPRP
- shrunken log2 fold change: 0.328

Sequence: RRIRFRPPRLPRPRPRPYWIPRP
- shrunken log2 fold change: -1.07

Sequence: RRIRMRPPRLPRPRPRPYNPPRP
- shrunken log2 fold change: -0.21

Sequence: RRIRNRPPRLPRPRPRPGIEPRP
- shrunken log2 fold change: -0.0795

Sequence: RRIRARPPRLPRPRPRPFTFPRP
- shrunken log2 fold change: -0.0365

Sequence: RRIRSRPPRLPRPRPRPEKAPRP
- shrunken log2 fold change: -0.193

Sequence: RRIRHRPPRLPRPRPRPQISPRP
- shrunken log2 fold change: -0.0457

Sequence: RRIRIRPPRLPRPRPRPFLLPRP
- shrunken log2 fold change: -0.563

Sequence: RRIRKRPPRLPRPRPRPCDHPRP
- shrunken log2 fold change: 0.0248

Sequence: RRIRERPPRLPRPRPRPYYWPRP
- shrunken log2 fold change: -0.192

Sequence: RRIRRRPPRLPRPRPRPHTLPRP
- shrunken log2 fold change: -0.182

Sequence: RRIRVRPPRLPRPRPRPYEWPRP
- shrunken log2 fold change: -0.303

Sequence: RRIRVRPPRLPRPRPRPKCAPRP
- shrunken log2 fold change: 0.0145

Sequence: RRIRTRPPRLPRPRPRPLVAPRP
- shrunken log2 fold change: 0.106

Sequence: RRIRVRPPRLPRPRPRPQGNPRP
- shrunken log2 fold change: 0.055

Sequence: RRIRDRPPRLPRPRPRPRIGPRP
- shrunken log2 fold change: -0.00724

— the supplement of paper PMC9112550, “Optimization of the antimicrobial peptide Bac7 by deep mutational scanning” (BMC Biology, 2022)
